In publication PMC10244618:
Several values for one entry are separate records, joined by “and”; a condition that tells them apart may be missing. Identical values can stand only once.

B1: NF2 (merlin) isoform 7, human, full length (507 aa, lacks exons 2-3 = isoform-1 residues 39-121; exon-16 C-terminus), P35240-4 (parent)
chain: MAGAIASRMSFSSLKRKQPKTFTVRIVTMDAEMEFNCEVKKQILDEKIYCPPEASVLLASYAVQAKYGDYDPSVHKRGFLAQEELLPKRVINLYQMTPEMWEERITAWYAEHRGRARDEAEMEYLKIAQDLEMYGVNYFAIRNKKGTELLLGVDALGLHIYDPENRLTPKISFPWNEIRNISYSDKEFTIKPLDKKIDVFKFNSSKLRVNKLILQLCIGNHDLFMRRRKADSLEVQQMKAQAREEKARKQMERQRLAREKQMREEAERTRDELERRLLQMKEEATMANEALMRSEETADLLAEKAQITEEEAKLLAQKAAEAEQEMQRIKATAIRTEEEKRLMEQKVLEAEVLALKMAEESERRAKEADQLKQDLQEAREAERRAKQKLLEIATKPTYPPMNPIPAPLPPDIPSFNLIGDSLSFDFKDTDMKRLSMEIEKEKVEYMEKSKHLQEQLNELKTEIEALKLKERETALDILHNENSDRGGSSKHNTIKKPQAQGRRPICI

Variants of: B1
Assay: reverse yeast two-hybrid deep mutational scan (rY2H-seq): NF2 isoform 7 mutant library as bait mated with wild-type prey strains; selection on medium lacking adenine for non-interacting pairs; NextSeq paired-end sequencing; enrichment vs …
Settings: with EMILIN1 (elastin microfibril interfacer 1), Q9Y6C2; yeast diploids after mating (RBait_S3 x RPrey_S3), 30 °C, selection for reporter genes on NB agar; human ABL2 co-expressed as the kinase-dead K35M mutant …; HIGHER = WEAKER BINDING (the opposite of display enrichments): higher = stronger loss of interaction: reverse Y2H selects yeast in which bait and prey do NOT interact (growth without adenine), so a …; hits-only table; scale: rY2H score; numbering: uniprot, sequence starts at 1

Variant | enrichment
A406F | 10.8
I213F | 7.19 and 3.36
S172F | 1.58

Same assay, conditions: with PIK3R3 (phosphatidylinositol 3-kinase regulatory subunit gamma), Q92569; yeast diploids after mating (RBait_S3 x RPrey_S3), 30 °C, selection for reporter genes on NB agar; human tyrosine kinase ABL2 co-expressed as the active kinase …; HIGHER = WEAKER BINDING (the opposite of display enrichments): higher = stronger loss of interaction: reverse Y2H selects yeast in which bait and prey do NOT interact (growth without adenine), so a …; hits-only table; scale: rY2H score; numbering: uniprot, sequence starts at 1

Variant | enrichment
L57F | 1.98
I213F | 15.3
S204F | 3.76 and 3.21

Same assay, conditions: with EMILIN1 (elastin microfibril interfacer 1), Q9Y6C2; yeast diploids after mating (RBait_S3 x RPrey_S3), 30 °C, selection for reporter genes on NB agar; human tyrosine kinase ABL2 co-expressed as the active kinase …; HIGHER = WEAKER BINDING (the opposite of display enrichments): higher = stronger loss of interaction: reverse Y2H selects yeast in which bait and prey do NOT interact (growth without adenine), so a …; hits-only table; scale: rY2H score; numbering: uniprot, sequence starts at 1

Variant | enrichment
I505F | 1.61
I213F | 3.35
N402F | 4.91

Same assay, conditions: with KDM1A (lysine-specific histone demethylase 1A; the table's label AOF2 is a gene synonym of KDM1A), O60341; yeast diploids after mating (RBait_S3 x RPrey_S3), 30 °C, selection for reporter genes on NB agar; human tyrosine kinase ABL2 co-expressed as the active kinase …; HIGHER = WEAKER BINDING (the opposite of display enrichments): higher = stronger loss of interaction: reverse Y2H selects yeast in which bait and prey do NOT interact (growth without adenine), so a …; hits-only table; scale: rY2H score; numbering: uniprot, sequence starts at 1

Variant | enrichment
I505F | 2.14
I213F | 6.76
S60F | 3.51

Same assay, conditions: with NF2 C-terminal domain (wild type; homomeric NF2-NF2 interaction), P35240; yeast diploids after mating (RBait_S3 x RPrey_S3), 30 °C, selection for reporter genes on NB agar; human ABL2 co-expressed as the kinase-dead K35M mutant …; HIGHER = WEAKER BINDING (the opposite of display enrichments): higher = stronger loss of interaction: reverse Y2H selects yeast in which bait and prey do NOT interact (growth without adenine), so a …; hits-only table; partner unresolved; scale: rY2H score; numbering: uniprot, sequence starts at 1

Variant | enrichment
I505F | 2.29
I213F | 4.21

Same assay, conditions: with KDM1A (lysine-specific histone demethylase 1A; the table's label AOF2 is a gene synonym of KDM1A), O60341; yeast diploids after mating (RBait_S3 x RPrey_S3), 30 °C, selection for reporter genes on NB agar; human ABL2 co-expressed as the kinase-dead K35M mutant …; HIGHER = WEAKER BINDING (the opposite of display enrichments): higher = stronger loss of interaction: reverse Y2H selects yeast in which bait and prey do NOT interact (growth without adenine), so a …; hits-only table; scale: rY2H score; numbering: uniprot, sequence starts at 1

Variant | enrichment
N402F | 24.7
